Laboratory results from paper PMC5286830, “Prokaryotic ubiquitin-like protein remains intrinsically disordered when covalently attached to proteasomal target proteins” (BMC Structural Biology, 2017).

Biological target: MtbDop-F (Mycobacterium tuberculosis deamidase of Pup / depupylase, randomly fluorescein-labeled) (Mycobacterium tuberculosis) (UniProt P9WNU9)
Experiment: MST; Monolith NT.115, starting temperature 19 C; 30 nM MtbDop-F with serial 1:1 dilutions of MtbPup or MtbPup ~ FabD-3KR from 25 uM to 15 nM; 50 mM HEPES-NaOH pH 7.5, 150 mM NaCl, 1 mM MgCl2, 10% glycerol, 0.01% Tween-20; T-jump analysis, fit assuming 1:1 binding

MtbPup (prokaryotic ubiquitin-like protein from Mycobacterium tuberculosis, free) (from UniProt P9WHN5 1-64) (natural protein)
Kd: 14.6 nM
